± gives the uncertainty stated by the source.
B1: Spectrin alpha chain, erythrocytic 1, residues 979 to 1036; numbered along this chain, P02549 (parent)
chain: EQRVMALYDFQARSPREVTMKKGDVLTLLSSINKDWWKVEAADHQGIVPAVYVRRLAH

Variants of: B1
Assay: abundance fitness (aPCA) (normalised: wild type 0, dead -1); higher = more abundant; growth selection in yeast, the domain comes from the species named
Conditions: Homo sapiens

Variant	abundance fitness
W37C	-0.386 ± 0.25
W37D	-0.644 ± 0.23
W37M	-0.12 ± 0.2
W37G	-0.596 ± 0.31
W37V	0.367 ± 0.1
W37A	-0.848 ± 0.45
E1D	0.242 ± 0.32
E1R	-0.215 ± 0.35
S30M	-0.463 ± 0.32
S30T	-0.632 ± 0.22
S30K	-0.322 ± 0.26
S30L	-1.18 ± 0.29
S30V	-0.964 ± 0.28
S30G	-0.041 ± 0.14
S30E	-0.066 ± 0.094
K21W	-0.534 ± 0.41
K21G	-0.652 ± 0.17
K21P	-0.578 ± 0.44
I47V	0.228 ± 0.16
I47F	0.349 ± 0.21
I47A	-0.532 ± 0.32
I47W	0.461 ± 0.15
I47T	-0.701 ± 0.42
I47N	-0.25 ± 0.18

Variant	abundance fitness
I47Y	0.304 ± 0.23
I47L	0.065 ± 0.13
I47M	0.561 ± 0.11
V4M	-0.716 ± 0.31
V4A	-0.945 ± 0.25
V4T	-1.04 ± 0.23
V4P	-0.927 ± 0.21
V4K	-0.739 ± 0.16
V4Q	-0.145 ± 0.18
R3W	-0.209 ± 0.26
R3P	-0.94 ± 0.36
R3Y	0.294 ± 0.17
R3H	-0.408 ± 0.21
R3L	-0.14 ± 0.11
R3T	-0.778 ± 0.14
R3V	-0.828 ± 0.36
D24Y	-0.805 ± 0.3
D24G	-0.883 ± 0.29
Y52L	-0.284 ± 0.16
Y52K	-0.528 ± 0.22
Y52G	-0.659 ± 0.29
Y52W	-0.978 ± 0.41
Y52V	-0.682 ± 0.19
Y52M	-0.045 ± 0.11

Variant	abundance fitness
Y52H	-0.368 ± 0.45
Y52A	0.089 ± 0.13
Y52F	-0.367 ± 0.16
Y52P	-0.075 ± 0.26
T19V	-0.822 ± 0.11
T19W	-0.932 ± 0.14
T19P	-0.613 ± 0.15
T19L	-0.369 ± 0.14
T19Q	-0.476 ± 0.16
T19E	-0.73 ± 0.36
T19R	-0.744 ± 0.21
T19S	0.249 ± 0.08
T19N	-0.122 ± 0.33
V48A	-0.687 ± 0.17
V48C	-0.502 ± 0.29
V48T	-0.727 ± 0.17
Q2L	-0.573 ± 0.5
Q2S	-0.822 ± 0.42
Q2G	-0.187 ± 0.17
Q2E	0.108 ± 0.22
Q2V	-0.384 ± 0.37
Q2R	-0.401 ± 0.17
Q2A	-0.002 ± 0.27
N33A	-0.751 ± 0.17

Variant	abundance fitness
N33E	-0.064 ± 0.21
N33S	-0.35 ± 0.34
N33Q	-0.494 ± 0.28
N33V	-0.833 ± 0.3
N33L	-0.694 ± 0.29
L29I	-0.266 ± 0.4
L29R	-0.768 ± 0.34
L29V	0.016 ± 0.081
L29M	-0.582 ± 0.16
L29W	-0.111 ± 0.26
L29K	0.119 ± 0.11
D43R	-0.708 ± 0.34
D43A	-0.314 ± 0.21
D43N	-0.105 ± 0.31
D43W	-0.622 ± 0.23
D43V	-0.537 ± 0.23
D43I	-0.387 ± 0.19
D43T	-0.223 ± 0.23
V18L	0.138 ± 0.1
V18W	-1.03 ± 0.23
V18Q	-0.656 ± 0.42
V18P	-0.71 ± 0.33
V18K	-0.418 ± 0.17
V18A	-0.376 ± 0.13

Variant	abundance fitness
V18R	-0.817 ± 0.16
V18C	-0.266 ± 0.21
V18M	-0.33 ± 0.21
L7A	-0.609 ± 0.12
L7W	-0.716 ± 0.22
L7K	-0.176 ± 0.35
L7R	-0.686 ± 0.14
L7M	-0.049 ± 0.14
A41R	0.049 ± 0.092
A41C	0.001 ± 0.086
A41V	-0.633 ± 0.33
A41N	-0.024 ± 0.23
A41L	-0.208 ± 0.16
A41Q	-0.287 ± 0.36
A41E	-0.851 ± 0.49
A41S	0.232 ± 0.12
W36R	-0.894 ± 0.36
T27L	-0.752 ± 0.27
T27P	-0.382 ± 0.44
T27K	0.229 ± 0.15
T27N	-0.246 ± 0.17
T27V	-0.396 ± 0.088
P49T	-0.477 ± 0.37
P49Y	-0.72 ± 0.36

Variant	abundance fitness
P49L	-0.887 ± 0.36
P49G	-0.44 ± 0.25
P49Q	-0.898 ± 0.21
P49E	-0.854 ± 0.18
P49K	-0.47 ± 0.42
P49S	-0.497 ± 0.42
P49A	-0.932 ± 0.38
Q45K	0.09 ± 0.12
Q45L	-0.713 ± 0.19
Q45E	0.039 ± 0.4
Q45W	-0.889 ± 0.42
Q45G	-0.754 ± 0.16
Q45D	-0.498 ± 0.27
Q45C	-0.103 ± 0.24
Q45T	0.516 ± 0.14
Q45S	-0.004 ± 0.094
Q45R	-0.037 ± 0.066
V51A	0.616 ± 0.075
V51D	0.148 ± 0.26
V51L	-0.083 ± 0.12
V51M	0.149 ± 0.12
V51H	0.216 ± 0.26
M5V	0.422 ± 0.056
M5T	-0.242 ± 0.14

Variant	abundance fitness
M5S	-0.344 ± 0.15
M5G	-0.813 ± 0.092
M5N	-0.512 ± 0.48
M5Q	-0.383 ± 0.21
M5E	0.081 ± 0.15
H58S	0.088 ± 0.31
R13L	-0.742 ± 0.12
R13F	-0.585 ± 0.27
R13A	-0.26 ± 0.16
R13W	-0.738 ± 0.24
R13S	-0.221 ± 0.15
R13Q	-0.305 ± 0.088
R13C	-0.316 ± 0.23
R13M	-0.751 ± 0.26
K34P	-0.015 ± 0.33
K34Q	-0.229 ± 0.28
K34T	0.023 ± 0.26
K34H	0.231 ± 0.29
S14H	-0.292 ± 0.28
S14P	-0.802 ± 0.19
S14D	0.134 ± 0.24
S14A	-0.743 ± 0.097
S14L	-0.866 ± 0.21
S14R	-0.364 ± 0.15

Variant	abundance fitness
S14N	0.014 ± 0.36
S14C	-0.571 ± 0.37
H44A	-0.051 ± 0.13
H44V	-0.156 ± 0.12
H44W	-0.483 ± 0.23
H44G	0.292 ± 0.081
H44M	-0.039 ± 0.28
H44K	0.555 ± 0.49
H44C	-0.016 ± 0.35
H44Q	0.119 ± 0.2
H44T	-0.107 ± 0.23
H44Y	-0.804 ± 0.41
K38A	-0.258 ± 0.29
K38W	-0.168 ± 0.076
K38P	-0.701 ± 0.34
K38V	0.303 ± 0.061
K38Y	-0.311 ± 0.28
K38S	-0.301 ± 0.096
K38C	0.284 ± 0.19
K38G	-0.832 ± 0.41
K38M	0.083 ± 0.17
A50D	-0.872 ± 0.22
A50V	-0.79 ± 0.29
A50M	-0.823 ± 0.2

Variant	abundance fitness
A50P	-0.847 ± 0.4
A50R	0.04 ± 0.12
A50S	0.011 ± 0.087
A50W	-0.879 ± 0.23
L26Q	-0.429 ± 0.26
L26F	-0.237 ± 0.32
L26M	-0.34 ± 0.18
L26E	-0.5 ± 0.34
L26K	-0.324 ± 0.39
L26V	-0.767 ± 0.28
L26G	-0.65 ± 0.13
F10D	-0.834 ± 0.36
F10A	-0.778 ± 0.1
F10L	-0.658 ± 0.16
F10V	-0.992 ± 0.23
F10C	-1.09 ± 0.33
F10S	-0.707 ± 0.21
F10Q	-0.607 ± 0.11
F10G	-0.996 ± 0.44
D9A	-0.166 ± 0.15
D9T	-0.862 ± 0.3
D9M	-0.855 ± 0.19
D9G	-0.652 ± 0.11
D9N	-0.651 ± 0.48

Variant	abundance fitness
D9R	-0.943 ± 0.23
D9W	-1.02 ± 0.2
Q11K	0.303 ± 0.14
Q11A	-0.37 ± 0.14
Q11G	-0.774 ± 0.11
Q11W	-1.23 ± 0.32
Q11H	-0.421 ± 0.37
Q11C	-0.348 ± 0.094
Q11D	-0.582 ± 0.38
Q11M	-0.314 ± 0.092
Q11V	0.097 ± 0.13
R54W	-0.668 ± 0.34
R54N	-0.668 ± 0.13
R54G	-0.491 ± 0.16
R54M	-0.518 ± 0.26
R54E	-0.254 ± 0.33
R54A	-0.351 ± 0.17
R54Q	0.052 ± 0.26
R54K	0.257 ± 0.17
D35R	-0.326 ± 0.2
D35L	-0.685 ± 0.098
D35N	-0.182 ± 0.24
D35T	-0.506 ± 0.27
D35K	-0.027 ± 0.16

Variant	abundance fitness
D35M	-0.535 ± 0.26
V53S	-0.819 ± 0.26
V53C	0.039 ± 0.11
Y8A	0.346 ± 0.28
A42P	-0.223 ± 0.36
A42F	-0.002 ± 0.4
A42G	0.455 ± 0.059
A42S	-0.133 ± 0.25
A42E	-0.089 ± 0.25
M20P	-0.831 ± 0.38
M20F	-0.681 ± 0.24
M20L	-0.276 ± 0.092
M20A	-0.791 ± 0.24
M20G	-0.829 ± 0.2
M20K	-0.574 ± 0.41
M20T	-0.877 ± 0.18
M20E	-0.726 ± 0.26
A12K	-0.71 ± 0.47
A12G	-0.779 ± 0.2
A12F	-0.627 ± 0.41
A12P	-0.971 ± 0.14
G46R	-0.58 ± 0.18
G46L	-0.227 ± 0.17
G46V	-1.03 ± 0.49

Variant	abundance fitness
G46W	-0.452 ± 0.38
G46E	-0.023 ± 0.27
V39K	-0.742 ± 0.43
V39W	-0.564 ± 0.2
V39E	-0.332 ± 0.18
V39G	-0.705 ± 0.22
V39P	-0.319 ± 0.44
V39S	-0.886 ± 0.13
V39F	-0.658 ± 0.42
V39R	-0.852 ± 0.24
E40M	-0.125 ± 0.26
E40P	-0.744 ± 0.5
E40D	-0.388 ± 0.094
E40S	-0.187 ± 0.11
E40T	-0.222 ± 0.19
E40K	0.29 ± 0.21
E40Q	0.188 ± 0.17
A6V	-0.861 ± 0.13
A6M	-0.915 ± 0.3
A6N	-0.44 ± 0.37
A6R	-0.767 ± 0.17
A6W	-0.754 ± 0.098
A6T	-0.685 ± 0.41
A6G	-0.76 ± 0.14

Variant	abundance fitness
P15G	-0.46 ± 0.1
P15A	-0.252 ± 0.11
P15R	-0.529 ± 0.14
P15K	0.089 ± 0.17
P15L	-0.705 ± 0.2
P15C	-0.411 ± 0.25
P15V	-0.561 ± 0.15
P15S	-0.178 ± 0.093
L28C	0.354 ± 0.28
L28I	0.024 ± 0.44
A57D	0.507 ± 0.19
A57K	0.933 ± 0.21
A57Q	0.18 ± 0.36
A57N	0.105 ± 0.47
A57P	0.297 ± 0.14
S31N	-0.224 ± 0.5
S31V	0.437 ± 0.098
S31I	0.495 ± 0.26
S31K	-0.179 ± 0.27
S31L	-0.38 ± 0.21
S31F	-0.47 ± 0.098
S31E	0.518 ± 0.13
S31Q	0.225 ± 0.17
S31R	-0.282 ± 0.082

Variant	abundance fitness
K22R	-0.238 ± 0.11
K22W	-0.725 ± 0.2
K22Q	0.303 ± 0.49
K22H	-0.341 ± 0.42
V25T	-0.7 ± 0.5
V25R	-0.469 ± 0.14
V25L	-1.01 ± 0.49
V25H	-0.432 ± 0.14
L56C	-0.169 ± 0.44
L56W	-0.982 ± 0.33
L56I	-0.021 ± 0.12
L56R	-0.874 ± 0.2
L56P	-0.45 ± 0.38
L56A	-0.882 ± 0.21
E17G	-0.801 ± 0.27
E17Q	-0.239 ± 0.31
E17N	-0.693 ± 0.32
E17D	-0.738 ± 0.28
E17H	-0.63 ± 0.13
E17S	-0.92 ± 0.41
E17T	-0.729 ± 0.41
E17L	-0.802 ± 0.19
